Laboratory results as given in patent US20150087577A1 (POLYPHOR, published 2015).
Bridges are numbered along the chain shown (N, C = ends). [ ]: non-standard residue; d: D form. 2Nal = N[C@@H](Cc1ccc2ccccc2c1)C(=O)O; Cit = NC(=O)NCCC[C@H](N)C(=O)O; Dab = NCC[C@H](N)C(=O)O

B1: Example 113 (peptide)
peptide: cyclo(YR[Cit]CRG[dP]RRYC[Cit]YK[dP]P)
modifications: disulfide 4-11
SMILES: N=C(N)NCCC[C@@H]1NC(=O)[C@@H]2CSSC[C@H](NC(=O)[C@H](Cc3ccc(O)cc3)NC(=O)[C@H](CCCNC(=N)N)NC(=O)[C@H](CCCNC(=N)N)NC(=O)[C@H]3CCCN3C(=O)CNC1=O)C(=O)N[C@@H](CCCNC(N)=O)C(=O)N[C@@H](Cc1ccc(O)cc1)C(=O)N[C@@H](CCCCN)C(=O)N1CCC[C@@H]1C(=O)N1CCC[C@H]1C(=O)N[C@@H](Cc1ccc(O)cc1)C(=O)N[C@@H](CCCNC(=N)N)C(=O)N[C@@H](CCCNC(N)=O)C(=O)N2
B2: Example 104 (peptide)
peptide: cyclo(YRTCRG[dP][Dab]R[2Nal]CYQK[dP]P)
modifications: disulfide 4-11
SMILES: C[C@@H](O)[C@@H]1NC(=O)[C@H](CCCNC(=N)N)NC(=O)[C@H](Cc2ccc(O)cc2)NC(=O)[C@@H]2CCCN2C(=O)[C@H]2CCCN2C(=O)[C@H](CCCCN)NC(=O)[C@H](CCC(N)=O)NC(=O)[C@H](Cc2ccc(O)cc2)NC(=O)[C@@H]2CSSC[C@H](NC1=O)C(=O)N[C@@H](CCCNC(=N)N)C(=O)NCC(=O)N1CCC[C@@H]1C(=O)N[C@@H](CCN)C(=O)N[C@@H](CCCNC(=N)N)C(=O)N[C@@H](Cc1ccc3ccccc3c1)C(=O)N2
B3: Example 105 (peptide)
peptide: cyclo(YH[Cit]CRG[dP]RRWCY[Cit]K[dP]P)
modifications: disulfide 4-11
SMILES: N=C(N)NCCC[C@@H]1NC(=O)[C@@H]2CSSC[C@H](NC(=O)[C@H](Cc3c[nH]c4ccccc34)NC(=O)[C@H](CCCNC(=N)N)NC(=O)[C@H](CCCNC(=N)N)NC(=O)[C@H]3CCCN3C(=O)CNC1=O)C(=O)N[C@@H](Cc1ccc(O)cc1)C(=O)N[C@@H](CCCNC(N)=O)C(=O)N[C@@H](CCCCN)C(=O)N1CCC[C@@H]1C(=O)N1CCC[C@H]1C(=O)N[C@@H](Cc1ccc(O)cc1)C(=O)N[C@@H](Cc1c[nH]cn1)C(=O)N[C@@H](CCCNC(N)=O)C(=O)N2
B4: Example 108 (peptide)
peptide: cyclo(YR[Cit]CRG[dP]RRWCYQK[dP]P)
modifications: disulfide 4-11
SMILES: N=C(N)NCCC[C@@H]1NC(=O)[C@@H]2CSSC[C@H](NC(=O)[C@H](Cc3c[nH]c4ccccc34)NC(=O)[C@H](CCCNC(=N)N)NC(=O)[C@H](CCCNC(=N)N)NC(=O)[C@H]3CCCN3C(=O)CNC1=O)C(=O)N[C@@H](Cc1ccc(O)cc1)C(=O)N[C@@H](CCC(N)=O)C(=O)N[C@@H](CCCCN)C(=O)N1CCC[C@@H]1C(=O)N1CCC[C@H]1C(=O)N[C@@H](Cc1ccc(O)cc1)C(=O)N[C@@H](CCCNC(=N)N)C(=O)N[C@@H](CCCNC(N)=O)C(=O)N2
B5: Example 109 (peptide)
peptide: cyclo(YR[Cit]CRG[dP][Dab]RWCYQK[dP]P)
modifications: disulfide 4-11
SMILES: N=C(N)NCCC[C@@H]1NC(=O)[C@@H]2CSSC[C@H](NC(=O)[C@H](Cc3c[nH]c4ccccc34)NC(=O)[C@H](CCCNC(=N)N)NC(=O)[C@H](CCN)NC(=O)[C@H]3CCCN3C(=O)CNC1=O)C(=O)N[C@@H](Cc1ccc(O)cc1)C(=O)N[C@@H](CCC(N)=O)C(=O)N[C@@H](CCCCN)C(=O)N1CCC[C@@H]1C(=O)N1CCC[C@H]1C(=O)N[C@@H](Cc1ccc(O)cc1)C(=O)N[C@@H](CCCNC(=N)N)C(=O)N[C@@H](CCCNC(N)=O)C(=O)N2
B6: Example 106 (peptide)
peptide: cyclo(YK[Cit]CRG[dP]RRWCY[Cit]K[dP]P)
modifications: disulfide 4-11
SMILES: N=C(N)NCCC[C@@H]1NC(=O)[C@@H]2CSSC[C@H](NC(=O)[C@H](Cc3c[nH]c4ccccc34)NC(=O)[C@H](CCCNC(=N)N)NC(=O)[C@H](CCCNC(=N)N)NC(=O)[C@H]3CCCN3C(=O)CNC1=O)C(=O)N[C@@H](Cc1ccc(O)cc1)C(=O)N[C@@H](CCCNC(N)=O)C(=O)N[C@@H](CCCCN)C(=O)N1CCC[C@@H]1C(=O)N1CCC[C@H]1C(=O)N[C@@H](Cc1ccc(O)cc1)C(=O)N[C@@H](CCCCN)C(=O)N[C@@H](CCCNC(N)=O)C(=O)N2
B7: Example 22 (peptide)
peptide: cyclo(YR[Cit]FRVPRR[2Nal]VY[Cit]K[dP]P)
SMILES: CC(C)[C@@H]1NC(=O)[C@H](Cc2ccc3ccccc3c2)NC(=O)[C@H](CCCNC(=N)N)NC(=O)[C@H](CCCNC(=N)N)NC(=O)[C@@H]2CCCN2C(=O)[C@H](C(C)C)NC(=O)[C@H](CCCNC(=N)N)NC(=O)[C@H](Cc2ccccc2)NC(=O)[C@H](CCCNC(N)=O)NC(=O)[C@H](CCCNC(=N)N)NC(=O)[C@H](Cc2ccc(O)cc2)NC(=O)[C@@H]2CCCN2C(=O)[C@H]2CCCN2C(=O)[C@H](CCCCN)NC(=O)[C@H](CCCNC(N)=O)NC(=O)[C@H](Cc2ccc(O)cc2)NC1=O
B8: Example 103 (peptide)
peptide: cyclo(YR[Cit]CRG[dP]RR[2Nal]CY[Cit]E[dP]P)
modifications: disulfide 4-11
SMILES: N=C(N)NCCC[C@@H]1NC(=O)[C@@H]2CSSC[C@H](NC(=O)[C@H](Cc3ccc4ccccc4c3)NC(=O)[C@H](CCCNC(=N)N)NC(=O)[C@H](CCCNC(=N)N)NC(=O)[C@H]3CCCN3C(=O)CNC1=O)C(=O)N[C@@H](Cc1ccc(O)cc1)C(=O)N[C@@H](CCCNC(N)=O)C(=O)N[C@@H](CCC(=O)O)C(=O)N1CCC[C@@H]1C(=O)N1CCC[C@H]1C(=O)N[C@@H](Cc1ccc(O)cc1)C(=O)N[C@@H](CCCNC(=N)N)C(=O)N[C@@H](CCCNC(N)=O)C(=O)N2
B9: Example 114 (peptide)
peptide: cyclo(GR[Cit]CRG[dP]RR[2Nal]CY[Cit]K[dP]P)
modifications: disulfide 4-11
SMILES: N=C(N)NCCC[C@@H]1NC(=O)CNC(=O)[C@@H]2CCCN2C(=O)[C@H]2CCCN2C(=O)[C@H](CCCCN)NC(=O)[C@H](CCCNC(N)=O)NC(=O)[C@H](Cc2ccc(O)cc2)NC(=O)[C@@H]2CSSC[C@H](NC(=O)[C@H](CCCNC(N)=O)NC1=O)C(=O)N[C@@H](CCCNC(=N)N)C(=O)NCC(=O)N1CCC[C@@H]1C(=O)N[C@@H](CCCNC(=N)N)C(=O)N[C@@H](CCCNC(=N)N)C(=O)N[C@@H](Cc1ccc3ccccc3c1)C(=O)N2
B10: Example 112 (peptide)
peptide: cyclo(YR[Cit]CRG[dP]RRYCY[Cit]K[dP]P)
modifications: disulfide 4-11
SMILES: N=C(N)NCCC[C@@H]1NC(=O)[C@@H]2CSSC[C@H](NC(=O)[C@H](Cc3ccc(O)cc3)NC(=O)[C@H](CCCNC(=N)N)NC(=O)[C@H](CCCNC(=N)N)NC(=O)[C@H]3CCCN3C(=O)CNC1=O)C(=O)N[C@@H](Cc1ccc(O)cc1)C(=O)N[C@@H](CCCNC(N)=O)C(=O)N[C@@H](CCCCN)C(=O)N1CCC[C@@H]1C(=O)N1CCC[C@H]1C(=O)N[C@@H](Cc1ccc(O)cc1)C(=O)N[C@@H](CCCNC(=N)N)C(=O)N[C@@H](CCCNC(N)=O)C(=O)N2
B11: Example 107 (peptide)
peptide: cyclo(FR[Cit]CRG[dP]RRWCY[Cit]K[dP]P)
modifications: disulfide 4-11
SMILES: N=C(N)NCCC[C@@H]1NC(=O)[C@@H]2CSSC[C@H](NC(=O)[C@H](Cc3c[nH]c4ccccc34)NC(=O)[C@H](CCCNC(=N)N)NC(=O)[C@H](CCCNC(=N)N)NC(=O)[C@H]3CCCN3C(=O)CNC1=O)C(=O)N[C@@H](Cc1ccc(O)cc1)C(=O)N[C@@H](CCCNC(N)=O)C(=O)N[C@@H](CCCCN)C(=O)N1CCC[C@@H]1C(=O)N1CCC[C@H]1C(=O)N[C@@H](Cc1ccccc1)C(=O)N[C@@H](CCCNC(=N)N)C(=O)N[C@@H](CCCNC(N)=O)C(=O)N2
B12: Example 111 (peptide)
peptide: cyclo(YR[Cit]C[Dab]G[dP]RRWCYQK[dP]P)
modifications: disulfide 4-11
SMILES: N=C(N)NCCC[C@@H]1NC(=O)[C@H](CCCNC(=N)N)NC(=O)[C@H]2CCCN2C(=O)CNC(=O)[C@H](CCN)NC(=O)[C@@H]2CSSC[C@H](NC(=O)[C@H](Cc3c[nH]c4ccccc34)NC1=O)C(=O)N[C@@H](Cc1ccc(O)cc1)C(=O)N[C@@H](CCC(N)=O)C(=O)N[C@@H](CCCCN)C(=O)N1CCC[C@@H]1C(=O)N1CCC[C@H]1C(=O)N[C@@H](Cc1ccc(O)cc1)C(=O)N[C@@H](CCCNC(=N)N)C(=O)N[C@@H](CCCNC(N)=O)C(=O)N2
B13: Example 110 (peptide)
peptide: cyclo(YRTCRG[dP][Dab]RWCYQK[dP]P)
modifications: disulfide 4-11
SMILES: C[C@@H](O)[C@@H]1NC(=O)[C@H](CCCNC(=N)N)NC(=O)[C@H](Cc2ccc(O)cc2)NC(=O)[C@@H]2CCCN2C(=O)[C@H]2CCCN2C(=O)[C@H](CCCCN)NC(=O)[C@H](CCC(N)=O)NC(=O)[C@H](Cc2ccc(O)cc2)NC(=O)[C@@H]2CSSC[C@H](NC1=O)C(=O)N[C@@H](CCCNC(=N)N)C(=O)NCC(=O)N1CCC[C@@H]1C(=O)N[C@@H](CCN)C(=O)N[C@@H](CCCNC(=N)N)C(=O)N[C@@H](Cc1c[nH]c3ccccc13)C(=O)N2
B14: Example 21 (peptide)
peptide: cyclo(YR[Cit]FRV[dP]RR[2Nal]VY[Cit]K[dP]P)
SMILES: CC(C)[C@@H]1NC(=O)[C@H](Cc2ccc3ccccc3c2)NC(=O)[C@H](CCCNC(=N)N)NC(=O)[C@H](CCCNC(=N)N)NC(=O)[C@H]2CCCN2C(=O)[C@H](C(C)C)NC(=O)[C@H](CCCNC(=N)N)NC(=O)[C@H](Cc2ccccc2)NC(=O)[C@H](CCCNC(N)=O)NC(=O)[C@H](CCCNC(=N)N)NC(=O)[C@H](Cc2ccc(O)cc2)NC(=O)[C@@H]2CCCN2C(=O)[C@H]2CCCN2C(=O)[C@H](CCCCN)NC(=O)[C@H](CCCNC(N)=O)NC(=O)[C@H](Cc2ccc(O)cc2)NC1=O

Molecular target: human CXCR4 (human, UniProt P61073 1-352)
Assay: cell-based or functional assay

human CXCR4, sequence (P61073 whole entry): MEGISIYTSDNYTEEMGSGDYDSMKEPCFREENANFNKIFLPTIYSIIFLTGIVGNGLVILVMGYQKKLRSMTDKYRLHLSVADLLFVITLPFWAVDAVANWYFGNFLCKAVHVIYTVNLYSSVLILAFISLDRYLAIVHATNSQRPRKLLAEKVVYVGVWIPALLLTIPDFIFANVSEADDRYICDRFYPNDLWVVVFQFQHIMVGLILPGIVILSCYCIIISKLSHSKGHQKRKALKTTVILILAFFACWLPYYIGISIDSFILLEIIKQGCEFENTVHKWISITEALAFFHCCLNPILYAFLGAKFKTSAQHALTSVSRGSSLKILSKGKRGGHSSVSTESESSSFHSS

| Binder | IC50 (nM) Ca2+ assay (method 2) [nM] | IC50 (nM) Ca2+ assay (method 1) [nM] |
| --- | --- | --- |
| B1 | 0.62 |  |
| B2 | 7.4 |  |
| B3 | 0.62 |  |
| B4 | 4.6 |  |
| B5 | 3 |  |
| B6 | 3.1 |  |
| B7 |  | 300 |
| B8 | 18.3 |  |
| B9 | 1.3 |  |
| B10 | 7.8 |  |
| B11 | 3.8 |  |
| B12 | 1.6 |  |
| B13 | 1.7 |  |
| B14 |  | 550 |
